From patent WO2009138494A2 (dated 2009)
Substitutions are numbered along the chain they refer to.

B1: 133-H5 (VHH)
VHH: EVQLVESGGGLVQAGESLRLSCVVSGISISTKVMGWYRQAPGKQGESVAIIKTDGSTYYPDSVKGRFAISRDNAKNTVYLQMNSLKVEDTGVYYCIITGWGRGQGTQVTVSS
notes: not shown: C-terminal c-myc tag and (His)6 tag coded by the vector
B2: 107-H8 (VHH)
VHH: EVQLVESGGGLVQAGGSLRLSCVASRGTLNNNPMAMGWFRRAPGKEREFVASIDWSGRSTYYADSVKGRFTISRDNAKNTVWLQINSLEPEDTSVYFCASRREYYTGISIVESDYPYWGQGTQVTVSS
notes: as for B1
B3: 133-H9 (VHH)
VHH: EVQLVESGGGLVQPGGSLRLSCAASGSIFSINDMGWFRQAPGKEREHVALIRIKDGSIYYADSVKGRFTISRDNAKNTVYLQMNSLKPEDTAVYYCAAKTGTSFVYWGQGTQVTVSS
notes: as for B1
B4: 107-H7 (VHH)
VHH: B3 VHH with K87R, A97G
notes: as for B1
B5: 133-E12 (VHH)
VHH: B3 VHH with N32S, K76E, K87R, A97G
notes: as for B1
B6: 133-F8 (VHH)
VHH: B3 VHH with I53F, N77S
notes: as for B1
B7: 133-F12 (VHH)
VHH: B3 VHH with I53F, Y106C
notes: as for B1
B8: 132-A12 (VHH)
VHH: EVQLVESGGGLVQAGGSLRLSCAASGRNFRRNSMGWYRLTSGKQREMVARISNGGTTVYADSVKGRFTISRDNAKNTVYLQMNSLKFEDTAVYYCNAGDYTDSMYWGQGTQVTVSS
notes: as for B1
B9: 132-F7 (VHH)
VHH: EVQLVESGGGLVQAGGSLRLSCAASGNTFSFNVMGWYRQAPGKQRELVTIIDNGGTTNYADSVKGRFTISRDNAKNTVYLQMNSLKPEDTARYYCHARRGGTLYILGDSNYWGQGTQVTVSS
notes: as for B1
B10: 132-B8 (VHH)
VHH: B9 VHH with E1A, F31I, E46D, N53D, Y94F, T102N, L103A, I105T, D108E
notes: as for B1
B11: 132-B12 (VHH)
VHH: B9 VHH with F31I, I51M, N53D, G54S, D61G, N83S, Y94F, L103A, I105T
notes: as for B1
B12: 132-E10 (VHH)
VHH: B9 VHH with F31I, N58S, Y94T, I105T
notes: as for B1
B13: 132-F12 (VHH)
VHH: B9 VHH with K43N, G54S, I69V, T102G, D108E
notes: as for B1
B14: 132-G9 (VHH)
VHH: B9 VHH with A14T, S30N, G54S, Y94F, T102S, I105T
notes: as for B1
B15: 132-B3 (VHH)
VHH: EVQLVESGGGLVQAGGSLRLSCVASGSPFSIGATGWYRQAPGKQRDLVAEIYPSGDTIYADSVKGRSTISRDNAKNTVYLQMNSLKPEDTAVYFCNVVRWGVDYWGQGTQVTVSS
notes: as for B1
B16: 132-B1 (VHH)
VHH: B15 VHH with L85M
notes: as for B1
B17: 132-D1 (VHH)
VHH: B15 VHH with S27T, P28S, T34A, V48L, D56S, S67F, S84A, F94Y, V97A
notes: as for B1
B18: 132-E5 (VHH)
VHH: EVQLVESGGGLVQAGGSLRLSCVVSGSSFSVGAAGWYRQAPGKQRDLVAEIYPSGSTSYADSVKGRFTISRDNAKNIMYLQMNALKLEDTAVYYCNVVRWGVDYWGQGTQVTVSS
notes: as for B1
B19: 132-H4 (VHH)
VHH: EVQLVESGGGLVQAGGSLRLSCVASGTSIMVGAMGWYRQAPGKQRDLVAEIYPSGSTIYEDSVKGRFTISRDNAKNTVYLQMNSLKPEDTAVYYCNVLRWGVDYWGQGTQVTVSS
notes: as for B1
B20: 132-D3 (VHH)
VHH: VQLVESGGGLVQAGGSLRLSCVASGTSFSVGAAGWYRQAPGKQRDLVAEIYPSGSTIYADSVKGRFTISRDNAKNTVYLQMNALKPEDTAVYYCNVVRWGVDYWGQGTQVTVSS
notes: as for B1
B21: 132-G5 (VHH)
VHH: EVQLVESGGGLVQPGGSLRLSCAASGSILSIHYMGWFRQAPGKQRELVAGIPTGGTTNYADSVKGRFTMSRDNAKNTVDLQMNTMKPEDTAVYYCNAWISSERESRWLNYWGQGTQVTVSS
notes: as for B1
B22: 132-B5 (VHH)
VHH: EVQLVESGGGLVQAGGSLRLSCVASGLVSSYYGMGWFRQAPGKEREFVASVNWSGKDTYYGDSVKGRFAVSRDSGKNTGFLQMNSLKSEDTAVYYCARRRGGGTGTGNPSEYDYWGQGTQVTVSS
notes: as for B1

These binders were tested against T1, recombinant human TLR4/MD2 (rhTLR4/MD2), R&D Systems cat no: 3146-TM/CF (human, UniProt O00206 24-631; Q9Y6Y9 17-160, limits assumed) (assay: ELISA: TLR coated at 2 ug/ml, periplasmic extract of the clone, anti-VHH detection, OD against no-Nanobody control).
T1 construct: Bought protein, coated on ELISA plates
T1 sequence (O00206 24-631 limits assumed, chain 1 of 2): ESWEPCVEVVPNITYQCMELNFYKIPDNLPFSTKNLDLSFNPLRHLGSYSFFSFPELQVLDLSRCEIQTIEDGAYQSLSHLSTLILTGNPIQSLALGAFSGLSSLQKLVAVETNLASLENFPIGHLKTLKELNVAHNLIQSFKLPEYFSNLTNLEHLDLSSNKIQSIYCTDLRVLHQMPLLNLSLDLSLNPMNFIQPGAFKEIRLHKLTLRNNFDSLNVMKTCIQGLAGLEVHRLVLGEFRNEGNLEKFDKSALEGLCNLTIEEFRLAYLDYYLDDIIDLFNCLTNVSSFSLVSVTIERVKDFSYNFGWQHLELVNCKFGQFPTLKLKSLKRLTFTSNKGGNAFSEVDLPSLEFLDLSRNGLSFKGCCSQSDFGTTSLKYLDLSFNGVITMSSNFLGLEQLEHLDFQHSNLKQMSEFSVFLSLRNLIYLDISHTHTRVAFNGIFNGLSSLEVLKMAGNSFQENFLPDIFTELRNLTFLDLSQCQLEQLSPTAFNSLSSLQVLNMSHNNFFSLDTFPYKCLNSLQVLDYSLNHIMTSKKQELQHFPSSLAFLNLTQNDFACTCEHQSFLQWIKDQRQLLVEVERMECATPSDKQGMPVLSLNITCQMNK
T1 sequence (Q9Y6Y9 17-160 limits assumed, chain 2 of 2): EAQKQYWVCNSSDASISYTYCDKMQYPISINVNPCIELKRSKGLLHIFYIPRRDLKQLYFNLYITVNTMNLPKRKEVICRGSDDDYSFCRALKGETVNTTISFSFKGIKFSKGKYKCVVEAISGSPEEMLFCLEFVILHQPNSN

Binding result, binds:
B1
B2
B3
B4
B5
B6
B7

Each binder was assayed against T2, recombinant human TLR3, R&D Systems cat no: 1487-TR (human, UniProt O15455 27-700, limits assumed) in the same assay as above.
T2 construct: Bought protein, coated on ELISA plates; also called hTLR3

Binding result, binds:
B8
B9
B10
B11
B12
B13
B14

The binders below were run against T3, recombinant murine TLR3, R&D Systems cat no: 3005-TR (murine, UniProt Q99MB1 26-705, limits assumed) in the same assay as above.
T3 construct: Bought protein, coated on ELISA plates; also called mTLR3
T3 sequence (Q99MB1 26-705 limits assumed): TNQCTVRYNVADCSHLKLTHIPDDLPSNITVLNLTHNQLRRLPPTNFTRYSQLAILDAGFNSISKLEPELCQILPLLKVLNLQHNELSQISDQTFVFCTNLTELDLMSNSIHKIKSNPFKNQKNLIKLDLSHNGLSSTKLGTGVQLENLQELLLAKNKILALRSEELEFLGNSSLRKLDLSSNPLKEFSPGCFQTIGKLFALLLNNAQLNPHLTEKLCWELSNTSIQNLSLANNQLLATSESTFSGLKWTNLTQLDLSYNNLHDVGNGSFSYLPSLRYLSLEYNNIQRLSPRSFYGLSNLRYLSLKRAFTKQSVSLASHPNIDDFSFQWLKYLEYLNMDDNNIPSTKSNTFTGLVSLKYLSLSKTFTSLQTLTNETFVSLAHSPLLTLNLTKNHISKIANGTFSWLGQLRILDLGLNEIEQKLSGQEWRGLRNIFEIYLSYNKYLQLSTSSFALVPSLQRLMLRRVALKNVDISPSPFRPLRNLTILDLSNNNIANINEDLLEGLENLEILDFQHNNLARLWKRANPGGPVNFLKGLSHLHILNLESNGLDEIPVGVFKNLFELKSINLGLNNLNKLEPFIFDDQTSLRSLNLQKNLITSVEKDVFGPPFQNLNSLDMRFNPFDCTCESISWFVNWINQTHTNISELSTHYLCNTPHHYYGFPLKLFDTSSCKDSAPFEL

Binding result, binds:
B15
B16
B17
B18
B19
B20
B21
B22
